Assay results: paper PMC10928113, “Molecular architecture and platelet-activating properties of small immune complexes assembled on heparin and platelet factor 4” (Communications Biology, 2024)
Values joined by “and” are separate entries in the source; they are usually repeats but may differ in a detail not shown here. Identical values can stand only once.

B1: recombinant form of human platelet factor 4 (PF4) (natural protein)
chain: EAEEDGDLQCLCVKTTSQVRPRHITSLEVIKAGPHCPTAQLIATLKNGRKICLDLQAPLYKKIIKKLLES
notes: platelet factor 4 (PF4), human, recombinant; stands as a tetramer in the complexes; also called recombinant PF4; PF4 tetramer
B2: KKO monoclonal anti-PF4/heparin antibody (antibody, V domains shown)
VH: VQLQQSGAELVKPGASVKLSCKASGYTFTNYFIYWVKQRPGQGLEWIGEINPRNGDTDFNEKFESRATLTVDKSSSTAYMQLSSLTSEDSAIYYCTRSPYGNNYGFTYWGQGTLVTVSA
VL: DIQMIQSQKFMSTSVGDRVTVTCKASQNVGTNVAWYQQKPGQSPNALIYSASYRYSGVPDRFTGSGSGTDFTLTITNVQSEDLADYFCQQYNSYPLTFGTGTKLDLK
notes: Whole IgG (measured 152.5 kDa); also called KKO mAb; KKO hybridoma clone 31.2.57.A7; source: KKO hybridoma clone 31.2.57.A7 (ATCC), supernatant, purified (Protein A Sepharose)

What was measured:
[1] = target: the molecule itself; assay: native MS; PF4 incubated with UFH, SEC sub-fractions of the small complexes; 150 mM ammonium acetate, pH 6.9; masses by limited charge reduction
[2] = target: T1, recombinant form of human platelet factor 4 (PF4) (human, UniProt P02776); assay: native MS; PF4·dp20 complexes incubated with a nearly equimolar amount of KKO (0.28 mg/mL and 0.06 mg/mL); 150 mM ammonium acetate, pH 6.9; settings: both partners purified
T1 construct: platelet factor 4 (PF4), human, recombinant; stands as a tetramer in the complexes; also called recombinant PF4; PF4 tetramer

[3] = target: T1, recombinant form of human platelet …; assay: native MS; highest-MW SEC sub-fraction of PF4/UFH small complexes incubated with a nearly equimolar amount of KKO (antibody excess up to 33% also tested); 150 mM ammonium acetate, pH 6.9; limited charge reduction; settings: both partners purified

Binder | stoichiometry N [1] | stoichiometry N [2] | stoichiometry N [3]
B1 | 4 subunits (tetramer) | – | –
B2 | – | 1 PF4 tetramer per KKO and 2 PF4 tetramers per KKO | 1 KKO per complex of one heparin chain and two PF4 tetramers and 2 KKO per complex of one heparin chain and three PF4 tetramers
